Kd, koff and kon data for eleven molecules are collected here from patent publication US20120058906A1 (published 2012).

Substitutions are numbered along the chain they refer to.

The chains are these.
B1: Fab VH6-1_IGHD3-3*01_IGHJ4*01 & V4-3_IGLJ4*01 (Fab, V domains shown)
VH: QVQLQQSGPGLVKPSQTLSLTCAISGDSVSSNSAAWNWIRQSPSRGLEWLGRTYYRSKWYNDYAVSVKSRITINPDTSKNQFSLQLNSVTPEDTAVYYCAREYYDFWSGYYTDYFDYWGQGTLVTVSS
VL: QPVLTQPTSLSASPGASARLTCTLRSGINLGSYRIFWYQQKPESPPRYLLSYYSDSSKHQGSGVPSRFSGSKDASSNAGILVISGLQSEDEADYYCMIWHSSASFVFGGGTQLIIL
notes: Fab from E. coli; VH joined to CH1 with Flag and His tags (Plasmid A), VL to lambda CL (Plasmid E)
B2: Fab VH1-46_IGHD6-6*01>1_IGHJ1*01_S104F & L6_IGKJ1*01 (Fab, V domains shown)
VH: QVQLVQSGAEVKKPGASVKVSCKASGYTFTSYYMHWVRQAPGQGLEWMGIINPSGGSTSYAQKFQGRVTMTRDTSTSTVYMELSSLRSEDTAVYYCAREEYSSFSAEYFQHWGQGTLVTVSS
VL: not shown
notes: Modified Fab
B3: Fab VH5-51_IGHD5-18*01>3_IGHJ4*01 & V3-4_IGLJ1*01 (Fab, V domains shown)
VH: EVQLVQSGAEVKKPGESLKISCKGSGYSFTSYWIGWVRQMPGKGLEWMGIIYPGDSDTRYSPSFQGQVTISADKSISTAYLQWSSLKASDTAMYYCARRGYSYGYDYFDYWGQGTLVTVSS
VL: QTVVTQEPSFSVSPGGTVTLTCGLSSGSVSTSYYPSWYQQTPGQAPRTLIYSTNTRSSGVPDRFSGSILGNKAALTITGAQADDESDYYCVLYMGSGISYVFGTGTKVTVL
notes: Germline Fab from E. coli; VH joined to CH1 with Flag/His tags (Plasmid A), VL to lambda constant region (Plasmid E)
B4: Fab VH1-46_IGHD3-10*01_IGHJ4*01 & L12_IGKJ1*01 (Fab, V domains shown)
VH: QVQLVQSGAEVKKPGASVKVSCKASGYTFTSYYMHWVRQAPGQGLEWMGIINPSGGSTSYAQKFQGRVTMTRDTSTSTVYMELSSLRSEDTAVYYCAREYYYGSGSYYNDYFDYWGQGTLVTVSS
VL: not shown
B5: Fab VH6-1_IGHD3-3*01_IGHJ4*01 & V4-3_IGLJ4*01 (Fab, V domains shown)
VH: B1 VH
VL: B1 VL
notes: as for B3
B6: Fab VH1-46_IGHD6-6*01_IGHJ1*01 & L6_IGKJ1*01 (Fab, V domains shown)
VH: B2 VH with F104S
VL: not shown
notes: Germline Fab from E. coli; VH joined to CH1 with Flag/His tags (Plasmid A), VL to kappa constant region (Plasmid C)
B7: Fab VH1-46_IGHD6-6*01_IGHJ1*01_S102A_S103P_S104F & L6_IGKJ1*01 (Fab, V domains shown)
VH: B2 VH with S102A, S103P
VL: not shown
notes: Modified anti-DLL4 Fab; kappa Plasmid C)
B8: Fab VH1-46_IGHD6-6*01>1_IGHJ1*01_S104F & L6_IGKJ1*01 (Fab, V domains shown)
VH: B2 VH
VL: not shown
notes: as for B7
B9: Fab VH1-46_IGHD6-6*01_IGHJ1*01_S102A_S103P_S104F & L6_IGKJ1*01_S31K (Fab, V domains shown)
VH: B2 VH with S102A, S103P
VL: EIVLTQSPATLSLSPGERATLSCRASQSVSKYLAWYQQKPGQAPRLLIYDASNRATGIPARFSGSGSGTDFTLTISSLEPEDFAVYYCQQRSNWPPWTFGQGTKVEIKR
notes: Modified anti-DLL4 Fab
B10: Fab VH1-46_IGHD6-6*01_IGHJ1*01_S102A_S103P_S104F_H111F & L6_IGKJ1*01 (Fab, V domains shown)
VH: B2 VH with S102A, S103P, H111F
VL: not shown
notes: as for B7
B11: Fab VH1-46_IGHD6-6*01_IGHJ1*01_S102A_S103P_S104F_H111Y & L6_IGKJ1*01 (Fab, V domains shown)
VH: B2 VH with S102A, S103P, H111Y
VL: not shown
notes: as for B7

A word on the Kd: it is the concentration at which binding is half-saturated. In general, koff refers to the first-order rate constant of dissociation. The kon is the rate constant with which the complex forms.

The first assay concerns the target T1, Recombinant Human DLL4 (R&D Systems, Cat#1506-D4/CF) (human, UniProt Q9NR61 27-529).
T1 construct: Bought protein; also called rHuman DLL4; delta-like protein 4
Put plainly: Surface Plasmon Resonance, recombinant human DLL4.
B1: the Kd turned out to be 38 µM.
The same measure, in the same setting: the same measure for B2: 0.388 µM.

Another assay has as its target T2, Recombinant Human DLL4 (delta-like protein 4) (human, UniProt Q9NR61 27-524).
T2 construct: Bought (R&D Systems Cat#1506-D4/CF); also called rHuman DLL4
Put plainly: SPR, Fab on recombinant human DLL4; standard deviation in parentheses.
As to B3, the Kd stood at 4800 nM.
Consider B4, for which the Kd worked out at 500 nM, the koff came out at 0.29 s⁻¹ and the kon is 500000 M⁻¹ s⁻¹.
Regarding B5, the Kd was 38000 nM.
With B6, the Kd is 730 nM, the koff turned out to be 0.101 s⁻¹ and the kon came out at 163000 M⁻¹ s⁻¹.
Taken in the same sequence, the figures for B7 were 122 nM, 0.0492 s⁻¹ and 405000 M⁻¹ s⁻¹.
Taken in the same sequence, the figures for B8 were 380 nM, 0.19 s⁻¹ and 500000 M⁻¹ s⁻¹.
On to B9, for which the dissociation constant (Kd) is 112 nM, the koff was 0.0392 s⁻¹ and the kon is 350000 M⁻¹ s⁻¹.
Take B10: the dissociation constant Kd came to 70.6 nM, the koff was 0.03 s⁻¹ and the kon is 425000 M⁻¹ s⁻¹.
The matching figures for B11: 93.1 nM, 0.0317 s⁻¹ and 340000 M⁻¹ s⁻¹.
